Data published in PMC13403136.

Key:
AsCas12a [1] = target: T1, AsCas12a (UniProt U2UMQ6 1-1307); test: BLI
AsCas12a [2] = target: T1, AsCas12a; test: EMSA

Binder: AGCACCCAGTCCGCCCTGAGTAGATGTGAATCATCTTTAAT (ssDNA) [AsCas12a GFP ΨDNA w/ biotin]
- Kd (AsCas12a [1]): 24.5 nM

B1: AsCas12a ΨDNA + RNA target (EMSA, FAM ΨDNA) (DNA:RNA)
DNA: AGCACCCAGTCCGCCCTGAGTAGATGTGAATCATCTTTAAT
RNA: CUCAGGGCGGACUGGGUGCU
- binding result (AsCas12a [2]): binds

B2: AsCas12a ΨDNA + RNA target (EMSA) (DNA:RNA)
DNA: AGCACCCAGTCCGCCCTGAGTAGATGTGAATCATCTTTAAT
RNA: CUCAGGGCGGACUGGGUGCU
- binding result (AsCas12a [2]): binds
